Test results as given in ChEMBL document CHEMBL3596158, “Exploring the substrate promiscuity of an antibiotic inactivating enzyme” (Medchemcomm, 2014).

Columns and labels:
[1] = target: T1, Microcin C7 self-immunity protein MccF (Escherichia coli) (UniProt Q47511); experiment: Ratio of compound Kcat/Km to ESA Kcat/Km for wild type Escherichia coli MccF expressed in Escherichia coli Rosetta2 (DE3)
T1 sequence (whole entry): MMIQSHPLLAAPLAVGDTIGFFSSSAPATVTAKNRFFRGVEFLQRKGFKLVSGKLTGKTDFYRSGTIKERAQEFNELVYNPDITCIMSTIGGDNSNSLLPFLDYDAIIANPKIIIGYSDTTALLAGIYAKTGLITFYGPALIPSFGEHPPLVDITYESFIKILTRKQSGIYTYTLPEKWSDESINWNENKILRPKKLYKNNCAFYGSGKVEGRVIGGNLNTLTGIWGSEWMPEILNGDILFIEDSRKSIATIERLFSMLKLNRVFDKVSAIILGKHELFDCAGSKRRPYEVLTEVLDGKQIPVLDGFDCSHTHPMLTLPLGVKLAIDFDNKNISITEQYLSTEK

[2] = substrate: Nc1ncnc2c1ncn2[C@@H]1O[C@H](COS(=O)(=O)NC(=O)[C@@H](N)CCC(=O)O)[C@@H](O)[C@H]1O; experiment: (§1) Substrate activity at wild type Escherichia coli MccF expressed in Escherichia coli Rosetta2 (DE3) by bovine glutamate dehydrogenase-coupled continuous assay
[3] = substrate: N[C@@H](CCC(=O)O)C(=O)NS(=O)(=O)OC[C@H]1O[C@@H](n2cnc3c(=O)[nH]cnc32)[C@H](O)[C@@H]1O; experiment: as §1
[4] = substrate: Nc1nc2c(ncn2[C@@H]2O[C@H](COS(=O)(=O)NC(=O)[C@@H](N)CCC(=O)O)[C@@H](O)[C@H]2O)c(=O)[nH]1; experiment: as §1

Molecule: N[C@@H](CCC(=O)O)C(=O)NS(=O)(=O)OC[C@H]1O[C@@H](n2cnc3c(=O)[nH]cnc32)[C@H](O)[C@@H]1O
- Ratio [1]: 0.6

Molecule: Nc1nc2c(ncn2[C@@H]2O[C@H](COS(=O)(=O)NC(=O)[C@@H](N)CCC(=O)O)[C@@H](O)[C@H]2O)c(=O)[nH]1
- Ratio [1]: 1.5

B1: Microcin C7 self-immunity protein MccF (Escherichia coli), Q47511 (protein)
chain: T1 sequence (whole entry)
- Km [2]: 51.6 µM
- kcat [2]: 0.583 s⁻¹
- Km [3]: 90.9 µM
- kcat [3]: 0.635 s⁻¹
- Km [4]: 33.4 µM
- kcat [4]: 0.582 s⁻¹
